Laboratory results from patent publication US20040136959A1 (published 2004).

How the values were obtained:
[1] = target: IL-13 receptor (IL-13R) as naturally present on the human cell lines (human); experiment: cell-based or functional assay
[2] = target: human IL-13 receptor α2 chain (IL-13Rα2) (human) (UniProt Q14627); experiment: cell-based or functional assay
[3] = target: T1, human IL-13 receptor α2 chain (IL-13Rα2) (human, UniProt Q14627 27-380); experiment: 125I-IL-4 radioreceptor binding on SCCHN cells, vector control against IL-13Rα2 transfectants
T1 construct: also called IL-13Rα2 chain; IL-13Rα chain
T1 sequence: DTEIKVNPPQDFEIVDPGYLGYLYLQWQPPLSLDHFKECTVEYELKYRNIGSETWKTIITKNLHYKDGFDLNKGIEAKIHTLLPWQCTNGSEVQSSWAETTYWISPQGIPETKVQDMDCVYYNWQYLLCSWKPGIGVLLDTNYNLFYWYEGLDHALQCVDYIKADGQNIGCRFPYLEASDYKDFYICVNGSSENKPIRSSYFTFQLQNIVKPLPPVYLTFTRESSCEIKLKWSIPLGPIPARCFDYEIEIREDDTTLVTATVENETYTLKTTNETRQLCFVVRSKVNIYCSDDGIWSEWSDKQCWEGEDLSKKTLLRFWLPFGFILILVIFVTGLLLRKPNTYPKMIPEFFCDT

Molecule: IL-13-PE38 (from UniProt P35225 25-146; P11439 278-389; P11439 406-638)
- IC50, inhibition of protein synthesis, A253 cells [1]: 0.155 µg/mL
- IC50, inhibition of protein synthesis, Hep-2 cells [1]: 0.2 µg/mL
- IC50, inhibition of protein synthesis, KB cells [1]: 0.1 µg/mL
- IC50, inhibition of protein synthesis, KCCL871 cells [1]: 0.185 µg/mL
- IC50, inhibition of protein synthesis, KCCT871 cells [1]: 0.275 µg/mL
- IC50, inhibition of protein synthesis, KCCT891 cells [1]: > 1 µg/mL
- IC50, inhibition of protein synthesis, KCCTCM901 cells [1]: 0.11 µg/mL
- IC50, inhibition of protein synthesis, RPMI2650 cells [1]: > 1 µg/mL
- IC50, inhibition of protein synthesis, YCU891 cells [1]: 0.5 µg/mL
- IC50, inhibition of protein synthesis, YCUM862 cells [1]: > 1 µg/mL
- IC50, inhibition of protein synthesis, YCUT891 cells [1]: > 1 µg/mL
- IC50, inhibition of protein synthesis, YCUT892 cells [1]: > 1 µg/mL
- IC50, inhibition of protein synthesis, other 14 SCCHN cell lines [1]: 0.1 to 1 µg/mL
- IC50, inhibition of protein synthesis, HN12 cells (IL-13Rα2-positive) [2]: 0.0075 µg/mL
- IC50, inhibition of protein synthesis, IL-13Rα2-positive SCCHN cell lines [2]: < 0.01 µg/mL
- IC50, inhibition of protein synthesis, KCCTC873 cells (IL-13Rα2-positive) [2]: 0.008 µg/mL
- IC50, inhibition of protein synthesis, YCUM911 cells (IL-13Rα2-positive) [2]: 0.004 µg/mL

B1: Recombinant human IL-4 (ligand, UniProt P05112 25-153, looked up)
chain: HKCDITLQEIIKTLNSLTEQKTLCTELTVTDIFAASKNTTEKETFCRAATVLRQFYSHHEKDTRCLGATAQQFHRHKQLIRFLKRLDRNLWGLAGLNSCPVKEANQSTLENFLERLKTIMREKYSKCSS
notes: also called unlabeled IL-4
- binding result [3]: no binding
